Data taken from patent US20120058906A1 (published 2012).
Each block holds one binder with its values, some of them ahead of it.

Experiments:
[1] = target: T1, rHuman CD44/Fc Chimera, CF (R&D Systems Cat#3660-CD) (human, UniProt P16070 21-220); test: ECL (MSD multi-spot), antigen spotted on plate; Fab 22 nM; blank spot 289
T1 construct: Bought reagent; Fc part of the bought chimera not given

[2] = target: T2, rHuman HGF R/c-MET/Fc Chimera, CF (R&D Systems Cat#358-MT/CF) (human, UniProt P08581 25-932); test: as above
T2 construct: Bought reagent; also called HGF R/Fc; hepatocyte growth factor receptor; Fc part of the bought chimera not given

[3] = target: T3, rHuman Notch-1/Fc Chimera, CF (R&D Systems Cat#3647-TK) (human, UniProt P46531 19-526); test: as above
T3 construct: Bought reagent; Fc part of the bought chimera not given

[4] = target: T4, rHuman Erythropoietin R/Fc Chimera, CF (R&D Systems Cat#963-ER) (human, UniProt P19235 25-250); test: as above
T4 construct: Bought reagent; also called EPO R/Fc; Epo R; Fc part of the bought chimera not given
T4 sequence: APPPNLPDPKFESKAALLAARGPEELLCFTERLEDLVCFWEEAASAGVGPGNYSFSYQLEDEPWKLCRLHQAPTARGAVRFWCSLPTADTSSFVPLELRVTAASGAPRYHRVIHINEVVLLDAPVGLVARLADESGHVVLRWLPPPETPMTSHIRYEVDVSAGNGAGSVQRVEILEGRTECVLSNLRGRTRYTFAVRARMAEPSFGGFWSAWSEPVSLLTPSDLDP

[5] = target: T5, rHuman ErbB2/Fc Chimera, CF (R&D Systems Cat#1129-ER) (human, UniProt P04626 23-652); test: as above
T5 construct: Bought reagent; also called HER2/neu; human epidermal growth factor 2 receptor; Fc part of the bought chimera not given

[6] = target: T6, rHuman EGF R/Fc Chimera, CF (R&D Systems Cat#344-ER) (human, UniProt P00533 25-645); test: as above
T6 construct: Bought reagent; also called epidermal growth factor receptor; Fc part of the bought chimera not given

[7] = target: T7, rHuman P-Cadherin/Fc Chimera, CF (R&D Systems Cat#861-PC) (human, UniProt P22223 108-654); test: as above
T7 construct: Bought reagent; also called CDH3; Fc part of the bought chimera not given

[8] = target: T8, Recombinant Human DLL4 (R&D Systems Cat#1506-D4/CF) (human, UniProt Q9NR61 27-524); test: as above
T8 construct: Bought reagent; also called delta-like protein 4

[9] = target: T9, rHuman IGF-1 sR (IGF-1 sR), CF (R&D Systems Cat#391-GR) (human, UniProt P08069 31-932); test: as above
T9 construct: Bought soluble receptor; also called insulin-like growth factor-1 soluble receptor; IGF-R1

[10] = target: T10, rHuman EGF R/Fc Chimera, CF (R&D Systems Cat#344-ER) (human, UniProt P00533 25-645); test: MSD ECL multi-spot plate, antigen immobilized; Fab 200 nM; blank spot 588
T10 construct: Purchased Fc chimera; not shown: Fc portion of the purchased chimera

[11] = target: T11, Recombinant Human DLL4 (R&D Systems Cat#1506-D4/CF) (human, UniProt Q9NR61 27-524); test: as above
T11 construct: Purchased recombinant protein; also called delta-like protein 4

[12] = target: T12, rHuman CD44/Fc Chimera, CF (R&D Systems Cat#3660-CD) (human, UniProt P16070 21-220); test: as above
T12 construct: Purchased Fc chimera; not shown: Fc portion of the purchased chimera

[13] = target: T13, rHuman ErbB2/Fc Chimera, CF (R&D Systems Cat#1129-ER) (human, UniProt P04626 23-652); test: as above
T13 construct: Purchased Fc chimera; also called HER2/neu; not shown: Fc portion of the purchased chimera

[14] = target: T14, rHuman IGF-1 sR (IGF-1 sR), CF (R&D Systems Cat#391-GR) (human, UniProt P08069 31-932); test: as above
T14 construct: Purchased soluble receptor; also called insulin-like growth factor-1 soluble receptor; IGF-R1

[15] = target: T15, rHuman Notch-1/Fc Chimera, CF (R&D Systems Cat#3647-TK) (human, UniProt P46531 19-526); test: as above
T15 construct: Purchased Fc chimera; not shown: Fc portion of the purchased chimera

[16] = target: T16, rHuman P-Cadherin/Fc Chimera, CF (R&D Systems Cat#861-PC) (human, UniProt P22223 108-654); test: as above
T16 construct: Purchased Fc chimera; not shown: Fc portion of the purchased chimera

[17] = target: T17, rHuman Erythropoietin R/Fc Chimera, CF (R&D Systems Cat#963-ER) (human, UniProt P19235 25-250); test: as above
T17 construct: Purchased Fc chimera; also called EPO R/Fc; Epo R; not shown: Fc portion of the purchased chimera
T17 sequence: T4 sequence

[18] = target: T18, rHuman HGF R/c-MET/Fc Chimera, CF (R&D Systems Cat#358-MT/CF) (human, UniProt P08581 25-932); test: as above
T18 construct: Purchased Fc chimera; also called HGF R/Fc; not shown: Fc portion of the purchased chimera
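Further: blank spot per well as comparator with Hit at signal to blank ratio of 4 or more.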

ECL signal [1]: 317
ECL signal [2]: 203
ECL signal [3]: 389
ECL signal [4]: 2240
ECL signal [5]: 363
ECL signal [6]: 312
ECL signal [7]: 215
ECL signal [8]: 342
ECL signal [9]: 347
B1: Fab VH1-46_IGHD3-10*01_IGHJ4*01 & B3_IGKJ1*01 (Fab, V domains shown)
VH: QVQLVQSGAEVKKPGASVKVSCKASGYTFTSYYMHWVRQAPGQGLEWMGIINPSGGSTSYAQKFQGRVTMTRDTSTSTVYMELSSLRSEDTAVYYCAREYYYGSGSYYNDYFDYWGQGTLVTVSS
VL: not shown
notes: also called IGHV1-46*01

ECL signal [10]: 1370 ECL signal
ECL signal [11]: 45400 ECL signal
ECL signal [12]: 1160 ECL signal
ECL signal [13]: 1470 ECL signal
ECL signal [14]: 1320 ECL signal
ECL signal [15]: 1250 ECL signal
ECL signal [16]: 1130 ECL signal
ECL signal [17]: 1230 ECL signal
ECL signal [18]: 1430 ECL signal
B2: Fab VH5-51_IGHD5-18*01>3_IGHJ4*01_G100K & V3-4_IGLJ1*01 (Fab, V domains shown)
VH: EVQLVQSGAEVKKPGESLKISCKGSGYSFTSYWIGWVRQMPGKGLEWMGIIYPGDSDTRYSPSFQGQVTISADKSISTAYLQWSSLKASDTAMYYCARRKYSYGYDYFDYWGQGTLVTVSS
VL: QTVVTQEPSFSVSPGGTVTLTCGLSSGSVSTSYYPSWYQQTPGQAPRTLIYSTNTRSSGVPDRFSGSILGNKAALTITGAQADDESDYYCVLYMGSGISYVFGTGTKVTVL
notes: It was expressed as a Fab: CH1 with tags from Plasmid A and lambda CL from Plasmid E; also called Fab No. 22
